Patent US20120225437A1 (UNIVERSITY OF LEICESTER, published 2012)

Columns and labels:
[1] = biological target: T1, Rat MBL-A (mannan-binding lectin A) (rat, UniProt P19999 18-238); assay: SPR, MBL immobilised, CUB2 at 20, 10, 5 and 2.5 µM, 1:1 model
T1 construct: mature; It was immobilised on the SPR chip by amine coupling
Description: (§1) Data were fitted to a model in which there is a single Ca²⁺ site.
(§2) MBL (0.025 mg/ml) was immobilized onto the surface of a GLM sensor chip (˜10,000 response units) at pH 4.5, using amine-coupling chemistry. […] For inhibition assays, MBL was immobilized on to a CM-5 sensor chip (14,000 response units) and binding was measured on a Biacore® 2000 (GE Healthcare) in 20 mM Tris/HCl pH 7.4, containing 140 mM NaCl, 5 mM Ca²⁺, and 0.005% SP-20. […] Changes in response units caused by differences in sample composition were subtracted from all data. To account for changes in ionic strength of the buffer due to the inhibitor, binding was measured in the presence of equivalent concentrations of NaCl.

[2] = biological target: T1, Rat MBL-A (mannan-binding lectin A); assay: SPR, MBL immobilised, CUB2 injected, 5 mM Ca2+
Description: as §1, §2

B1: CUB2 domain of rat MASP-1/-3 (residues E165-A277 of the mature polypeptide, isoform 1) (other)
chain: CSGNLFTQRTGTITSPDYPNPYPKSSECSYTIDLEEGFMVTLQFEDIFDIEDHPEVPCPYDYIKIKAGSKVWGPFCGEKSPEPISTQSHSIQILFRSDNSGENRGWRLSYRA
notes: also called MASP-1 CUB2; rat MASP-1 CUB2
B1 was tested, and the koff [1] was 0.0035 s⁻¹, the kon [1] was 131 M⁻¹ s⁻¹ and the Kd [2] was 27 µM.
